Measurements taken from PMC6221947 (Structure (London, England : 1993), 2018).

B1: TbDHSc:DHSp (Trypanosoma brucei brucei TREU927) (protein)
chain 1: MAELAKSAVLVSSCTDDLLGDAKQVVVGPNQEDLHSAEAVLNRYSTVGFQASNLARAFSICEMMLTPQSPSPSLMPTEGDQASESPVMVQPTLFVGVTANLFGTGCREAIRFLCTECVPLPNGVEPATPLDDMAGISCDGTGALKPSPCDSRALIHVLVVSGGAMEHDIRRACESYKLSRDGAEEEGEQFHHPVERDRSRSKGTDCHFGNVRYNSSGVASRNLFSCVMRCLVKRLAEAQRKEKANREAAPIPEAYYDVCSWAITPSTLWYMAGLWMADIFTEALQETGEVTDEKVASEEGLKRAKSTVLYWAARNGVPIFSPSLTDGDIMEFILTAGDTGVPLLQLDLVADIHRLNRLAMRSRRTGMMILGGGVVKHHVCNANLMRNGADYAVFLNNAQEFDGSDAGARPGEAVSWGKLRLDSTAVKVYSEVTIVFPLIVVHVFVAWVRMMRSKGKENIRS
chain 2: MSGVPFPSRVIGDLDYSNLLNIGQEEAIRCVLNAYPNIGLEATNLGRARRIVQRALNDNGMDGNKVMLAYTSNLISSGLRDTFACLARENRIGAVVTTAGGVEEDVIKCLGDTLVGDFALNDHALRNNGLNRVGNLLVPNDNYRNFEDFFVPLLRRLHEQQRDSRWTTKTTPSQIIAEIGAALESVRPNDCGSSLIYWCYRNDIPVFSPAFTDGSMGDMIYFYNYSRKGLVVDPVPDVRRLRQLGCKSTNVGRITCIVLGAGLPKHHLLRNVQADAVVYVTTGSDADGCESSCNVMADRANGLLSPNCDVVRVHGDATIISPLLLLRSSDGKEKVGVREDGN
B2: Trypanosoma brucei deoxyhypusine synthase prozyme paralog (TbDHSp), untagged (natural protein, T. brucei, UniProt Q4GZD1 1-342, looked up)
chain: B1 chain 2

Key:
purified protein [1] = substrate: NCCCCNCCCN; assay: purified protein; assay type: biochemical, Trypanosoma brucei; details: 1 mM NAD+, 15 μM TbeIF5A, 5 nM DHS; labelled compound
purified protein [2] = substrate: NC(=O)c1ccc[n+]([C@@H]2O[C@H](COP(=O)(O)OP(=O)(O)OC[C@H]3O[C@@H](n4cnc5c(N)ncnc54)[C@H](O)[C@@H]3O)[C@@H](O)[C@H]2O)c1; assay: purified protein; assay type: biochemical, Trypanosoma brucei; details: 78 μM [14C]spermidine, 15 μM TbeIF5A, 5 nM DHS; varied: cofactor
[3] = target: T1, Trypanosoma brucei deoxyhypusine synthase, catalytic paralog (TbDHSc), His-SUMO tag removed (T. brucei, UniProt Q38BX0 1-461); assay: crystal structure
T1 sequence: B1 chain 1

| Binder | Km (purified protein [1]) | kcat (purified protein [1]) | Km (purified protein [2]) | kcat (purified protein [2]) | binding result [3] |
| --- | --- | --- | --- | --- | --- |
| B1 | 9.8 ± 1.2 µM | 0.18 ± 0.01 s⁻¹ | 1.3 ± 0.18 µM | 0.15 ± 0.0045 s⁻¹ | – |
| B2 | – | – | – | – | binds |
